{"source": "patent US20250313627A1", "about": "(FUSE BIOTHERAPEUTICS, published 2025)", "binders": {"B1": {"name": "FUSE-488 (5A1-Ac13) (bispecific antibody, human IgG1, lambda, L234A L235A)", "heavy": "EVQLVESGGGLVQPGGSLRLSCAASGFTFSTYAMNWVRQAPGKGLEWVARIRSKYNNYATYYADSVKDRFTISRDDSKNTLYLQMNSLRAEDTAVYYCARHGNFGNSYVSWFAYWGQGTMVTVSSASTKGPSVFPLAPSSKSTSGGTAALGCLVKDYFPEPVTVSWNSGALTSGVHTFPAVLQSSGLYSLSSVVTVPSSSLGTQTYICNVNHKPSNTKVDKKVEPKSCDKTHTCPPCPAPEAAGGPSVFLFPPKPKDTLMISRTPEVTCVVVDVSHEDPEVKFNWYVDGVEVHNAKTKPREEQYNSTYRVVSVLTVLHQDWLNGKEYKCKVSNKALPAPIEKTISKAKGQPREPQVYTLPPSREEMTKNQVSLSCAVKGFYPSDIAVEWESNGQPENNYKTTPPVLDSDGSFFLVSKLTVDKSRWQQGNVFSCSVMHEALHNRFTQKSLSLSPGK", "chain": "QVQLQESGGGSVQAGGSLKLSCTASGYTNRLKCMGWFRQAPGKEREEIATISTGTGNTYYADSVKGRFTFSQDKVKNTVYLQMNTLKPDDTGMYYCAADVRPDGTTCHYNSGGQGTQVTVSSEPKSSDKTHTCPPCPAPEAAGGPSVFLFPPKPKDTLMISRTPEVTCVVVDVSHEDPEVKFNWYVDGVEVHNAKTKPREEQYNSTYRVVSVLTVLHQDWLNGKEYKCKVSNKALPAPIEKTISKAKGQPREPQVYTLPPSREEMTKNQVSLWCLVKGFYPSDIAVEWESNGQPENNYKTTPPVLDSDGSFFLYSKLTVDKSRWQQGNVFSCSVMHEALHNHYTQKSLSLSPGK", "light": "QAVVTQEPSLTVSPGGTVTLTCRSSTGAVTTSNYANWVQQKPGQAPRGLIGGTNKRAPGTPARFSGSLLGGKAALTLSGVQPEDEAEYYCALWYSNLWVFGGGTKLTVLGQPKAAPSVTLFPPSSEELQANKATLVCLISDFYPGAVTVAWKADSSPVKAGVETTTPSKQSNNKYAASSYLSLTPEQWKSHRSYSCQVTHEGSTVEKTVAPTECSGGGGSGGGGSGGGGSGGGGSQVQLQESGGGSVQAGGSLKLSCTASGYTNRLKCMGWFRQAPGKEREEIATISTGTGNTYYADSVKGRFTFSQDKVKNTVYLQMNTLKPDDTGMYYCAADVRPDGTTCHYNSGGQGTQVTVSS", "notes": "also called humanized CD3 clone 1F3.3 x ROR1 VHH 5A1; non humanized 5A1 x 1F3-3 bsAb in format Ac13"}, "B2": {"name": "FUSE-559 (h5A1-FA9-HK1 Fc) (Fc fusion)", "chain": "EVQLLESGGGLVQPGGSLRLSCTASGYTNRLKCMGWFRQAPGKEREEIASISTGTGNTYYADSVKGRFTISRDKSRNTLYLQMNTLRAEDTAVYYCAADVRPHGTTCHYNSRGQGTQVTVSS", "notes": "VHH-Fc format; also called humanized clone 5A1-FA9-HK1; not shown: Fc of the VHH-Fc format"}, "B3": {"name": "FUSE-454 (5A1 VHH mutant-Fc fusion protein) (Fc fusion)", "chain": "QVQLQESGGGSVQAGGSLKLSCTASGYTNRLKVMGWFRQAPGKEREEIATISTGTGNTYYADSVKGRFTFSQDKVKNTVYLQMNTLKPDDTGMYYCAADVRPDGTTVHYNSGGQGTQVTVSS", "notes": "also called mutant 5A1; 5A1-CV; not shown: human Fc"}, "B4": {"name": "FUSE-453 (2A11 VHH mutant-Fc fusion protein) (Fc fusion)", "chain": "QVQLQESGGGSVPAGGSLRLSCAASGSTYSANVMGWFRQAPGKEREEVASMSIRSGRTYYSDSVKGRFTISQDGSKNTLYLQLNSLKAEDTALYYCAAAYGGSRVVYNYRGQGTQVTVSS", "notes": "also called mutant 2A11; 2A11-CV; not shown: human Fc"}}, "key": {"[1]": {"target": "T1, human ROR1 (Receptor Tyrosine Kinase-Like Orphan Receptor 1) on the cell surface (human, UniProt Q01973 30-937)", "T1 construct": "whole, on cells; engineered into B16-F10 (high density) and LS174T (low density) cells; also called B16-F10-ROR1-H; LS174T-ROR1-L", "T1 sequence (Q01973 30-937)": "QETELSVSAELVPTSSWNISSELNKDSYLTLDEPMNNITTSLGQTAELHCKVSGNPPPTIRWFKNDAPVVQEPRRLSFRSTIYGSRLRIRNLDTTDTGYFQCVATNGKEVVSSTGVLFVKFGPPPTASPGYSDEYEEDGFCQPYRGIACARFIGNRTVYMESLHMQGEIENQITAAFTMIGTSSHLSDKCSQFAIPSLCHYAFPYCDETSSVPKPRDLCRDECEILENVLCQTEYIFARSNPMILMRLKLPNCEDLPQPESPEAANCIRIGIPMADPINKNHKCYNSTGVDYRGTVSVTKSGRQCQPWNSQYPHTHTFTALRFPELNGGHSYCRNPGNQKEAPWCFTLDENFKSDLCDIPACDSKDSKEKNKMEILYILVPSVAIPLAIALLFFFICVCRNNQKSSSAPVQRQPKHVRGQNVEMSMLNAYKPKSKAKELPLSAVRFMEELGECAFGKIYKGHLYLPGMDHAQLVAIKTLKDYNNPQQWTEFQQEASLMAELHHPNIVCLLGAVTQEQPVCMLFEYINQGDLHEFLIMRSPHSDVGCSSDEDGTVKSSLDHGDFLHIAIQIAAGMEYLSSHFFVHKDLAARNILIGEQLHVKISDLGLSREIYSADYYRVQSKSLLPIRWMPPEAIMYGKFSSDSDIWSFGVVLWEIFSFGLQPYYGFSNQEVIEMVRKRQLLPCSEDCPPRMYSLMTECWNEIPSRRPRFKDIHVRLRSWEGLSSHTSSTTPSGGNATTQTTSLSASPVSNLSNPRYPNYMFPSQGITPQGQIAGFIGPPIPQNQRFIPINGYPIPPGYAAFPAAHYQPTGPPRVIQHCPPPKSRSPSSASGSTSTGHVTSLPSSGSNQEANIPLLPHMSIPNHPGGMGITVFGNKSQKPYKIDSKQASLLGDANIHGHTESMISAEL", "assay": "flow cytometry on ROR1+ MDA-MB-231 cells, secondary antibody to the IgG1 Fc; table row 'Binding EC50 (nM)', the graph's axis reads 'Concentration (pM)'"}, "human CD3 on T cells": {"target": "T2, human CD3 on T cells (human, UniProt P07766 23-207; P09693 23-182; P04234 22-171; P20963 22-164)", "T2 construct": "whole, on cells; also called human CD3 on Jurkat T cells; human CD3 on T cells isolated from human PBMC", "T2 sequence (P07766 23-207, chain 1 of 4)": "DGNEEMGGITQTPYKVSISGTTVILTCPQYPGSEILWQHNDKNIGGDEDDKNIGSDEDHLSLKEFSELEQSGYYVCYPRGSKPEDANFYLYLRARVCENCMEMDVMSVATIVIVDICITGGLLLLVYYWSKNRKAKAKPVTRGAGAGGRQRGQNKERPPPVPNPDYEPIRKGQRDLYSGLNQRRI", "T2 sequence (P09693 23-182, chain 2 of 4)": "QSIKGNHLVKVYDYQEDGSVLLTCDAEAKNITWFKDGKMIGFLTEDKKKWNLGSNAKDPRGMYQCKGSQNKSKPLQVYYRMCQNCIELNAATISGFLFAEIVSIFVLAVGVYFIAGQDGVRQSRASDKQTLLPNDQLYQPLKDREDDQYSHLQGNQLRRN", "T2 sequence (P04234 22-171, chain 3 of 4)": "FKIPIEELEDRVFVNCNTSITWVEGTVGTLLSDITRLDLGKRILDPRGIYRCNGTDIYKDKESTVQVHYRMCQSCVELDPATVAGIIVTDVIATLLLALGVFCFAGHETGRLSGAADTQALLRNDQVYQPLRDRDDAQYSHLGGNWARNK", "T2 sequence (P20963 22-164, chain 4 of 4)": "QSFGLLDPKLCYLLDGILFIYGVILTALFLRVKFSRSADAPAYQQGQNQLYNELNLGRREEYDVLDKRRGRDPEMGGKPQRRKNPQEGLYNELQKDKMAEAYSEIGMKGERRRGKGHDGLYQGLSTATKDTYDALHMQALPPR", "assay": "flow cytometry on CD3+ Jurkat NFAT Lucia cells, secondary antibody to the IgG1 Fc"}, "[2]": {"target": "T1, human ROR1 (Receptor Tyrosine …)", "assay": "flow cytometry, B16-F10 cells expressing human ROR1 (high density)", "protocol": "(§1) As shown in the tables below, mouse B16-F10 melanoma (Tables 9A-9F) or LS174T human colorectal adenocarcinoma (Tables 9G-9H) cells genetically engineered to express human ROR1 at high and low densities, respectively, were stained for flow cytometric analysis with 100 nM of humanized variants of the ROR1 specific VHHs, 5A1 or 2A11 in either a VHH-Fc format or the Ac13 format shown in FIG. 1. Cells were analyzed on a flow cytometer after the primary test article was fluorescently tagged with a goat anti human IgG-Fc specific PE secondary antibody. The positive control used was PE conjugated anti-human ROR1 clone 2A2. Negative controls included a PE labeled mouse IgG Ab, the secondary antibody only, the combination of a Hen Egg Lysozyme (HEL) specific antibody plus goat anti human IgG-Fc specific PE and Fluorescence Minus One (FMO). Other controls included the non-humanized version of 5A1-Fc (FUSE179), 2A11-Fc (FUSE112) and 5A1-Ac13 (FUSE488). Humanized variants were generated using computational design (FUSE489, FUSE497-498, FUSE563, FUSE569-570, and BI-HU9-VHH11-33), a yeast display library in which mutations were inserted into the Vernier zone residues of human framework indicated in GenBank accession number M99660 (FUSE524-525, FUSE589, FUSE597-598, FUSE537, FUSE661-662, BI-HU9-HK and BI-HU9-HK-1), and a second yeast display library in which mutations were inserted into the Vernier zone residues of human framework indicated in GenBank accession number AWH66715 and amino acid position 103 within CDR3 (FUSE559, FUSE590-596, BI-HU9-VH9-1, FUSE654-655 and FUSE661-662. Affinity matured variants of FUSE559 were also generated using computational design (F22158101-21; Table 9H)."}, "[3]": {"target": "T1, human ROR1 (Receptor Tyrosine …)", "assay": "flow cytometry, LS174T cells expressing human ROR1 (low density)", "protocol": "as §1"}, "[4]": {"target": "T1, human ROR1 (Receptor Tyrosine …)", "assay": "flow cytometry on B16-F10 cells engineered to express human ROR1, secondary antibody to the IgG1 Fc", "protocol": "As shown in FIG. 15 the apparent binding affinity (EC50-binding) of the ROR1 specific VHH-Fc incorporating either the non humanized VHH clone 5A1 (FUSE179; black circle), the humanized clone 5A1-FA9-HK1 (FUSE559; black square) or the humanized clone 5A1-HK1 (FUSE524; black triangle) was calculated. Shown is a non-linear x-y plot of binding to B16-F10 cell engineered to express human ROR1 relative to the concentration of test article used for staining. A Hen Egg Lysozyme (HEL)-specific antibody was used as the negative isotype control. Binding was measured via flow cytometry using a fluorescently labeled secondary antibody specific for the Fc domain of IgG1. A summary table of EC50s and maximum MFI is shown beneath under the graph."}, "[5]": {"target": "T3, recombinant His tagged human ROR1 (human, UniProt Q01973 30-403, limits assumed)", "T3 construct": "Analyte in the BLI assay; also called Human ROR1-His; recombinant ROR1", "T3 sequence (Q01973 30-403 limits assumed)": "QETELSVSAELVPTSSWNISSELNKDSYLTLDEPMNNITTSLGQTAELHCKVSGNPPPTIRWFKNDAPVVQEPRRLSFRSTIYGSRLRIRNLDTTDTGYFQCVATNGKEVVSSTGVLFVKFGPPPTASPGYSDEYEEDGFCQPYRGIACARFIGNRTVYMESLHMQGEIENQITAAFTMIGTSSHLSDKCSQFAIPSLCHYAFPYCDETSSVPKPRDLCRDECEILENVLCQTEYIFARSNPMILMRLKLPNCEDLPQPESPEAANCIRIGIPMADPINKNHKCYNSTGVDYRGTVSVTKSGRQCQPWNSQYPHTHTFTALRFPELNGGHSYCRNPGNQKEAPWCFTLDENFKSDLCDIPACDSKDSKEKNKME", "assay": "SPR (Biacore 8K), recombinant human ROR1 amine-coupled on a CM5 chip (4400 RU), analyte 200nM, 1:1 binding fit [table below it]", "protocol": "(§2) Protein test article binding to recombinant human ROR1 (Acro Biosystems, RO1-H522y) was detected on a BIAcore 8K (Cytiva) biosensor system using an SPR assay. Briefly, a carboxymethylated CM5 sensor chip was activated with 1:1 mixture of 0.4 M N-ethyl-N-(3-dimethylaminopropyl) carbodiimide and 0.1 M′ N-hydroxysuccinimide. Recombinant human ROR1 in 10 mM NaOAc (pH5) was then immobilized on the sensor chip by amine-coupling according to the manufacturer's instructions to yield the stable RU of 4400. Unreacted sites were blocked with 1M ethanolamine/HCl (pH 8). Control flow cells (blank) were activated and blocked in the absence of ROR1. Flow cells were routinely equilibrated with running buffer (PBS, 0.005% surfactant P20). Test article proteins used for assessment of binding to recombinant human ROR1 binding were diluted in HBS-EP running buffer and injected into the sensor chip at different concentrations. […] Data from duplicate assays were modeled for binding equilibrium and dot plots for 200 nM of protein test article was calculated. Association constant (ka), dissociation constant (kd) and binding affinity (KD=kd/ka) were generated from integrated software in the BIAcore 8K system.\n(§3) Shown are sensorgrams of surface plasmon resonance (SPR) data generated via Biacore analysis. A summary table of binding affinity (KD), on rate (k-a) and off rate (kd) is shown below FIG. 16B."}, "[6]": {"target": "T3, recombinant His tagged human ROR1", "assay": "SPR (Biacore 8K), recombinant human ROR1 amine-coupled on a CM5 chip (4400 RU), analyte 200nM, 1:1 binding fit; column 'kd (1/s)' [table below it]", "protocol": "as §2, §3"}, "[7]": {"target": "T1, human ROR1 (Receptor Tyrosine …)", "assay": "flow cytometry, B16-F10 cells expressing human ROR1 (high density)", "protocol": "as §1", "remark": "listed apart in the source"}, "[8]": {"target": "T1, human ROR1 (Receptor Tyrosine …)", "assay": "flow cytometry, LS174T cells expressing human ROR1 (low density)", "protocol": "as §1", "remark": "listed apart in the source"}, "[9]": {"target": "T3, recombinant His tagged human ROR1", "assay": "SPR (Biacore 8K), recombinant human ROR1 amine-coupled on a CM5 chip (4400 RU), analyte 200nM, 1:1 binding fit; column '1:1 binding ka (1/Ms)' [table below it]", "protocol": "as §2, §3"}, "[10]": {"target": "T1, human ROR1 (Receptor Tyrosine …)", "assay": "flow cytometry, B16-F10 cells expressing human ROR1 (high density)", "protocol": "as §1", "remark": "listed apart in the source"}, "[11]": {"target": "T3, recombinant His tagged human ROR1", "assay": "BLI (Octet), FUSE protein on the tip, His tagged ROR1 in solution", "protocol": "As shown in FIGS. 5A-5D, the binding affinities (KD) of TCEs for ROR1 were assessed. We examined the magnitude by which several TCEs and mutants thereof bind to recombinant ROR1. Kinetic binding graphs were generated via Bio-Layer Interferometry (BLI) using an Octet system. For each TCE, the biosensor tips were coated with FUSE proteins at 15 μg/ml and probed with either recombinant His tagged ROR1 at concentrations ranging from 100 pM to 10 μM. […] The binding affinity (KD), on rate (k-on) and off rate (k-dis), are summarized for ROR1 in FIG. 5D.\nWe further examined the impact of mutating the cysteine residues located in CDR1 and CDR3 of 2A11 VHH and 5A1 VHH."}}}
{"binder": "B1", "values": [{"measurement": "EC50", "setting": "[1]", "value": 19.2, "unit": "nM"}, {"measurement": "EC50", "setting": "human CD3 on T cells", "value": 10.6, "unit": "nM"}, {"measurement": "MFI", "setting": "[2]", "value": 3910}]}
{"binder": "B2", "values": [{"measurement": "MFI", "setting": "[3]", "value": 24400}, {"measurement": "EC50", "setting": "[4]", "value": 2.31, "unit": "nM"}, {"measurement": "Max MFI", "setting": "[4]", "value": 7600, "unit": "MFI"}, {"measurement": "Kd", "setting": "[5]", "value": 2.56, "unit": "nM"}, {"measurement": "koff", "setting": "[6]", "value": 0.00077, "unit": "s⁻¹"}, {"measurement": "MFI", "setting": "[7]", "value": 6080}, {"measurement": "MFI", "setting": "[8]", "value": 3120}, {"measurement": "kon", "setting": "[9]", "value": 301000, "unit": "M⁻¹ s⁻¹"}, {"measurement": "MFI", "setting": "[10]", "value": 199000}]}
{"binder": "B3", "values": [{"measurement": "fold lower affinity than the parent (printed FUSE-454, meant FUSE-179)", "setting": "[11]", "value": "> 100", "unit": "fold"}]}
{"binder": "B4", "values": [{"measurement": "fold lower affinity than FUSE-112", "setting": "[11]", "value": "> 100", "unit": "fold"}]}
